Results from patent US20060288448.

T1: Angiogenin peptide (Bachem), P03950 (not fully specified)
T1 chain: ENGLPVHLDQSIFRR

T2: β-casein, P02666
T2 chain: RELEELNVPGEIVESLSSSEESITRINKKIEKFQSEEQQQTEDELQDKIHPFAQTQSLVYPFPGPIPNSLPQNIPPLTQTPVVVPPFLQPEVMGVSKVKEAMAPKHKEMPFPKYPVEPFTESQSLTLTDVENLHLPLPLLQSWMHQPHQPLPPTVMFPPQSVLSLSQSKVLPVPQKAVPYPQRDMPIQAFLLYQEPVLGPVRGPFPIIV

B1: iwm2s.pk017.h10 cathepsin L-like protease of western corn rootworm midgut (protein)
chain: MKLFILAAALIVATSANLGAFEKWTSFKATHNKSYNVIEDKLRFAVFQDNLKKIEEHNAKYESGEETYYLAVNKFADWSSAEFQAMLARQMANKPKQSFIAKHVADPNVQAVEEVDWRDSAVLGVKDQGQCGSCWAFSTTGSLEGQLAIHKNQRVPLSEQELVDCDTSRNAGCNGGLMTDAFNYVKRHGLSSESQYAYTGRDDRCKNVENKPLSSISGYVELETTEDALASAVASVGPVSIAVDADTWQLYGGGLFNNKNCRTNLNHGVLAVGYTKDAFIVKNSWGTSWGEQGYIRVARGENLCGINLMNSYPKL
B2: iwm2s.pk015.c9 cathepsin L-like protease of western corn rootworm midgut (protein)
chain: MKLLILAATLIVAINANLSAFEQWTSFKATHNKFYNVIEDKLRFAVFQENLRKIDAHNAKYEKGEETYYMAVNKFADWSSAEFQAMLDRQMANKPKQSFIAKHVVDPNVQAVEEVDWRESAVLGVKDQGQCGSCWAFSTTGSLEGQLAIHKNQRVPLSEQELVDCDKVNDGCDGGLMTDAFFYIEHHGLSSEEQYPYTGVDGHCNHVKDKQVSSISGYVELDETESALADALANVGPVSIAVEADTWQFYSGGVFNNKNCGDALNHGVLAVGYTKDVFIVKNSWGTGWGEQGYIRVARGSNLCGINLMNSYPKL

Legend:
[1] = target: T1, Angiogenin peptide (Bachem), P03950
β-casein, P02666 = target: T2, β-casein, P02666

Chain of κ-casein, P02668 (P02668 22-190): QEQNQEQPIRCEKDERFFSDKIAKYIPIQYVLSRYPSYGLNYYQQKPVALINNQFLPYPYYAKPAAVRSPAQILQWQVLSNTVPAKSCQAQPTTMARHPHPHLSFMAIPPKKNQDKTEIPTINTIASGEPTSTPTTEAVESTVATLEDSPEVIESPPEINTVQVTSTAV

| Protein | proteolytic digestion, cleavage site mapping (κ-casein, P02668) | proteolytic digestion for 30 or 60 min (LC-MS, N-terminal sequencing) [1] | proteolytic digestion time course (SDS-PAGE, N-terminal sequencing) (β-casein, P02666) |
| --- | --- | --- | --- |
| B1 | κ-casein was also digested with c9 and h10 ... major detectable cleavage sites were observed after Ser54, Asp62, Serl25, and Met127 | – | – |
| B2 | κ-casein was also digested with c9 and h10 ... major detectable cleavage sites were observed after Ser54, Asp62, Serl25, and Met127 | after 30 min two distinct pairs of cleavage products were detected that corresponded to cleavage immediately N-terminal to Leu8 or to Gln10 | The time course of β-casein digestion by c9 showed a major ˜19 kD digestion product (indicated by black arrowhead) by 2 minutes after addition of enzyme |
